Six molecules from US20240239890A1 (Chugai, published 2024) can be followed below.

For experiment [1], the target named is T1, Human RNF43 extracellular domain (amino acids 1-190) with a Flag tag on its C terminus (human, UniProt Q68DV7 24-190).
T1 construct: also called recombinant human RNF43; human RNF43 ECD
T1 sequence: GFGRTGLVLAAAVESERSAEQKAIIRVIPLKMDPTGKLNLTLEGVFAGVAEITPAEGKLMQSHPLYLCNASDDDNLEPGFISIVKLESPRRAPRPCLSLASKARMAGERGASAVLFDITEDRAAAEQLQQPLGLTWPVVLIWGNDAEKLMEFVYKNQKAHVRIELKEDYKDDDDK
Nature of the experiment: SPR, Biacore T200, antibody captured by anti-human Fc, RNF43 as analyte, pH 7.4, 25 C. As to the method:
The affinity of the anti-RNF43 monospecific antibodies towards human RNF43 at pH 7.4 was determined at 25 degrees C. using the Biacore T200 instrument (GE Healthcare). Anti-human Fc (GE Healthcare) was immobilized onto all flow cells of a CM4 sensor chip using an amine coupling kit (GE Healthcare). All antibodies and analytes were prepared in ACES at pH 7.4 containing 20 mM ACES, 150 mM NaCl, 0.05% Tween 20, 0.005% NaN₃. Each antibody was captured onto the sensor surface by anti-human Fc. Antibody capture levels were aimed at 312 resonance unit (RU). Recombinant human RNF43 was injected at 200 nM, 50 nM, and 12.5 nM prepared by a four-fold serial dilution, followed by dissociation. The sensor surface was regenerated each cycle with 3M MgCl2. Binding affinity was determined by processing and fitting the data to a 1:1 binding model using the Biacore T200 Evaluation software, version 2.0 (GE Healthcare).
On the technique in general: SPR reads the build-up and loss of mass on a sensor chip optically.

Experiment [2] has as its target T2, Human RNF43 ECD with Fc region fused on its C-terminus (human).
T2 construct: also called RNF43-Fc
T2 chain: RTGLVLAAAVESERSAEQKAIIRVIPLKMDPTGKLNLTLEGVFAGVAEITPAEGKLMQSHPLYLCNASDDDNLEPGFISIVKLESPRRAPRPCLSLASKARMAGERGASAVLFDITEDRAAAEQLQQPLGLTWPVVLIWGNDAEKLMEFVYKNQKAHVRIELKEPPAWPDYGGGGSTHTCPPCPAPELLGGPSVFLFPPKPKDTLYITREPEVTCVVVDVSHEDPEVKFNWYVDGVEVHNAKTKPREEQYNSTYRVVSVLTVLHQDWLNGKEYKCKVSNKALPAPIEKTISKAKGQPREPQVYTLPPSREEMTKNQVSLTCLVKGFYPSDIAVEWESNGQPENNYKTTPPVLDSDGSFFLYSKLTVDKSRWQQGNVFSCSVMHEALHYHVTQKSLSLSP
Nature of the experiment: competition ELISA on coated RNF43-Fc; first antibody unlabelled at 10x its EC50, second (reference) antibody biotinylated RNN0187jj at its EC50. As for the experimental part:
(§1) EC50 concentration for the binding of each anti-RNF43 monospecific antibody to RNF43-Fc (described in Example 2) was first determined by ELISA assay, using the biotinylated antibodies. In brief, RNF43-Fc at 5 micro g/mL or 1 micro g/mL was coated on Maxisorp plate (NUNC) at 4 degrees C. overnight. The coated plate was then washed with PBS-T, followed by blocking with Blocking One solution (Nacalai Tesque) for 2 hours at room temperature. Serially diluted, biotinylated anti-RNF43 monospecific antibody was then added and incubated for 1 hour at room temperature. After washing with PBS-T, StAv-HRP (PIERCE) was added and incubated for 1 hour at room temperature. After washing with PBS-T, ABTS Peroxidase substrate (SeraCare Life Sciences) was added and signal intensity was measured using Multiskan™ GO Microplate Spectrophotometer. EC50 concentration for the binding of the anti-RNF43 monospecific antibody to RNF43-Fc was calculated using Non-linear regression 4-parameter fit. The normalized absorbance at 405 nm/570 nm measured when EC50 concentration of anti-RNF43 antibodies was applied is denoted as AO.
(§2) To evaluate binding competition between the anti-RNF43 monospecific antibodies, ELISA assay with similar setting was conducted. RNF43-Fc was first coated in Maxisorp plate overnight. […] After washing with PBS-T, ABTS Peroxidase substrate was added and signal intensity was measured using Multiskan™ GO Microplate Spectrophotometer. The normalized absorbance at 405 nm/570 nm is denoted as A.
Background: ELISA stands for enzyme-linked immunosorbent assay.

Experiment [3] has as its target T2, Human RNF43 ECD with Fc region fused on …. The experiment in a line: competition ELISA on coated RNF43-Fc; first antibody unlabelled at 10x its EC50, second (reference) antibody biotinylated RNN0192nn at its EC50. As for the experimental part:
as §1, §2

The target is the same in experiment [4]. The experiment in a line: competition ELISA on coated RNF43-Fc; first antibody unlabelled at 10x its EC50, second (reference) antibody biotinylated RNN0193jj at its EC50. As to the method:
as §1, §2

Experiment [5] has the same target. Nature of the experiment: competition ELISA on coated RNF43-Fc; first antibody unlabelled at 10x its EC50, second (reference) antibody biotinylated RNN0207ii at its EC50. As for the experimental part:
as §1, §2

For experiment [6] the target is unchanged. Nature of the experiment: competition ELISA on coated RNF43-Fc; first antibody unlabelled at 10x its EC50, second (reference) antibody biotinylated RNN0242nn at its EC50. As to the method:
as §1, §2

The target is the same in experiment [7]. The experiment in a line: competition ELISA on coated RNF43-Fc; first antibody unlabelled at 10x its EC50, second (reference) antibody biotinylated RNN0246jj at its EC50. As for the experimental part: as §1, §2

A word on the Kd: it is the equilibrium constant for the complex coming apart. Low readings indicate a tighter complex, high ones a looser complex. What is called koff is the rate constant with which the complex falls apart. Usually kon stands for a measure of how fast the partners come together. Higher therefore signals faster complex formation.

B1: RNN0276oo (antibody, human IgG1, kappa, N297A, V domains shown)
VH: QSVEESGGRLVTPGTPLTLTCTVSGFSLSSYAMNWVRQAPGKGLEWIGVIGSSGRTYYASWAKGRFTSSKTSTTVVLKITSPTTEDTATYFCARGPYDSYGDGGVTGDLWGPGTLVTVSS
VL: AQVLTQTPSPVSAAVGGTVTINCQSSQSVYNNNNLAWYQQKPGQPPKLLIYRASTLASGVPSRFKGSGSGTQFTLTISGVQCEDAATYYCQGGYDCSSADCDTFGGGTKVEIKR
notes: Rabbit variable regions recombined with BS03aHis heavy-chain constant region and hk0MC light-chain constant region; also called anti-RNF43 monospecific antibody
In experiment [1], B1 displayed a Kd of 117 nM, a koff of 0.0227 s⁻¹ and a kon of 193000 M⁻¹ s⁻¹.

B2: RNN0192nn with rabbit constant region (antibody)
heavy: QEQLVESGGGLVQPEGSLTLTCTASGFSFSSRYYMCWVRQAPGKGLEWIGCIYTGSGSTYYASWAKGRVTISKTSSTTVTLQMTSLTAADTATYFCAREAGSFNLWGPGTLVTVSSGQPKAPSVFPLAPCCGDTPSSTVTLGCLVKGYLPEPVTVTWNSGTLTNGVRTFPSVRQSSGLYSLSSVVSVTSSSQPVTCNVAHPATNTKVDKTVAPSTCSKPMCPPPELLGGPSVFIFPPKPKDTLMISRTPEVTCVVVDVSQDDPEVQFTWYINNEQVRTARPPLREQQFNSTIRVVSTLPIAHQDWLRGKEFKCKVHNKALPAPIEKTISKARGQPLEPKVYTMGPPREELSSRSVSLTCMINGFYPSDISVEWEKNGKAEDNYKTTPTVLDSDGSYFLYSKLSVPTSEWQRGDVFTCSVMHEALHNHYTQKSISRSPGK
light: DVVMTQTPASVSEPVGGTVTIKCQASQSIYSGLAWYQQKPGQPPKLLIYSASKLASGVPSRFKGSGSGTEYTLTISDLECADAATYYCQNYYYGISNGWTFGGGTKVEIKRDPVAPTVLIFPPAADQVATGTVTIVCVANKYFPDVTVTWEVDGTTQTTGIENSKTPQNSADCTYNLSSTLTLTSTQYNSHKEYTCKVTQGTTSVVQSFNRGDC
B2: the “binding inhibition (%)” value in experiment [2] was 91%; in experiment [3], 88.5%; in experiment [4], 0.25%; in experiment [5] it was -6.42%; in experiment [6], 45.6%; in experiment [7], 21.9%.

B3: RNN0246jj (antibody, human IgG1, kappa, N297A)
heavy: QSVEESGGRLVTPDETLTLTCTVSGFSLNNYHMIWVRQAPGEGLEYIGFINTGGSAYYANWAKGRFTISKTSTTVDLKITSPTTEDTATYFCASVSWRTDYSFELWGPGTLVTVSSASTKGPSVFPLAPSSRSTSESTAALGCLVKDYFPEPVTVSWNSGALTSGVHTFPAVLQSSGLYSLSSVVTVPSSSLGTKTYTCNVDHKPSNTKVDKRVEPKSCDKTHTCPPCPAPELRRGPKVFLFPPKPKDTLMISRTPEVTCVVVDVSQEDPEVQFNWYVDGVEVHNAKTKPREEQFASTYRVVSVLTVLHQDWLNGKEYKCKVSNKGLPSSIEKTISKAKGQPREPQVYTLPPSREEMTKNQVSLTCLVKGFYPSDIAVEWESNGQPENNYKTTPPYLDSDGSFFLYSKLTVDKSRWQQGNVFSCSVMHEALHNHYTQESLSLSPHHHHHHHH
light: AQVLTQTPSPVSAAVGGTVTISCQASQSVYANNRLAWFQQKPGQPPKLLIYSASTLASGVPSRFKGSGSGTQFTLTISGVQCDDAATYYCAGAYTGNIYTFGGGTKVEIKRTVAAPSVFIFPPSDEQLKSGTASVVCLLNNFYPREAKVQWKVDNALQSGNSQESVTEQDSKDCTYSLSSTLTLSKADYEKHKVYACEVTHQGLSSPVTKSFNRGEC
notes: as for B1
As for B3, in experiment [1], the Kd was 48.6 nM, the koff amounted to 0.00944 s⁻¹ and the kon worked out at 194000 M⁻¹ s⁻¹.

B4: RNN0275kk (antibody, human IgG1, kappa, N297A, V domains shown)
VH: QSVEESGGRLVTPGTPLTLTCTVSGWTINSYHMCWVRQAPGEGLEWIATITTGGVTFYANWARGRFTISKTSTTVDLKMTSLTAADTATYFCVRGPDYTYFDLWGPGTLVTVSS
VL: NVVLTQTPSSVSAAVGGTVTIKCQASQSISDTLAWYQQKPGQPPKLLIYYASDLASGVPSRFSGSGSGTEFTLTINDLECADAATYYCQSYVYSNGIDNTFGGGTKVEIKR
notes: as for B1
In experiment [1], B4 showed a Kd of 65.6 nM, a koff of 0.131 s⁻¹ and a kon of 1.99e+06 M⁻¹ s⁻¹.

B5: RNN0207ii with rabbit constant region (antibody)
heavy: QEQLEESGGRLVTPGGSLTLTCTASGFSLSSYVISWVRQAPGEGLEYIGYVSTGGSPYYASWAKGRFTISRTSTAVDLKMTSLTASDTATYFCARYGYLDYSGLDLWGQGTLVTVSSGQPKAPSVFPLAPCCGDTPSSTVTLGCLVKGYLPEPVTVTWNSGTLTNGVRTFPSVRQSSGLYSLSSVVSVTSSSQPVTCNVAHPATNTKVDKTVAPSTCSKPMCPPPELLGGPSVFIFPPKPKDTLMISRTPEVTCVVVDVSQDDPEVQFTWYINNEQVRTARPPLREQQFNSTIRVVSTLPIAHQDWLRGKEFKCKVHNKALPAPIEKTISKARGQPLEPKVYTMGPPREELSSRSVSLTCMINGFYPSDISVEWEKNGKAEDNYKTTPTVLDSDGSYFLYSKLSVPTSEWQRGDVFTCSVMHEALHNHYTQKSISRSPGK
light: AQVLTQTPSSTSTAVGGTVTINCQSSQSVYEYNHLSWFQQKPGQPPKLLIYGASTLASGVPSRFKGSGSGTQFTLTISDLECDDAATYYCQGAYYGVVDTFGGGTKVEIKRDPVAPTVLIFPPAADQVATGTVTIVCVANKYFPDVTVTWEVDGTTQTTGIENSKTPQNSADCTYNLSSTLTLTSTQYNSHKEYTCKVTQGTTSVVQSFNRGDC
With B5, the “binding inhibition (%)” value in experiment [2] was -0.38%; in experiment [3] it was -3.55%; in experiment [4], 1.05%; in experiment [5], 65.9%; in experiment [6] it was -0.71%; in experiment [7] it was -1.38%.

B6: RNN0187jj with rabbit constant region (antibody)
heavy: QSLEESGGDLVKPGASLTLTCTASGFSFNSAYYMCWVRQAPGKGLEWIGCIYTGSGSTYYASWAKGRFTISKTSSTTVTLQMTSLTVADTATYFCARSGVSTYYTLWGPGTLVTVSSGQPKAPSVFPLAPCCGDTPSSTVTLGCLVKGYLPEPVTVTWNSGTLTNGVRTFPSVRQSSGLYSLSSVVSVTSSSQPVTCNVAHPATNTKVDKTVAPSTCSKPMCPPPELLGGPSVFIFPPKPKDTLMISRTPEVTCVVVDVSQDDPEVQFTWYINNEQVRTARPPLREQQFNSTIRVVSTLPIAHQDWLRGKEFKCKVHNKALPAPIEKTISKARGQPLEPKVYTMGPPREELSSRSVSLTCMINGFYPSDISVEWEKNGKAEDNYKTTPTVLDSDGSYFLYSKLSVPTSEWQRGDVFTCSVMHEALHNHYTQKSISRSPGK
light: DVVMTQTPSSVSAAVGGTVTIKCQASQSIYSGLAWYQQKPGQPPKLLIYGASTLASGVPSRFKGSGSGTEYTLTISGVQCDDAATYYCQNNYYTPSNGWAFGGGTKVEIKRDPVAPTVLIFPPAADQVATGTVTIVCVANKYFPDVTVTWEVDGTTQTTGIENSKTPQNSADCTYNLSSTLTLTSTQYNSHKEYTCKVTQGTTSVVQSFNRGDC
On to B6, for which the “binding inhibition (%)” value in experiment [2] turned out to be 30.7%; in experiment [3], 60.6%; in experiment [4], 2.35%; in experiment [5] it was 1.89%; in experiment [6] it was 22.3%; in experiment [7] it was 15.1%.
